Target: T1, PODXL on the surface of hESCs (human, UniProt O00592 23-558, glycosylated (sites not given))
T1 construct: also called human embryonic stem cells
T1 sequence: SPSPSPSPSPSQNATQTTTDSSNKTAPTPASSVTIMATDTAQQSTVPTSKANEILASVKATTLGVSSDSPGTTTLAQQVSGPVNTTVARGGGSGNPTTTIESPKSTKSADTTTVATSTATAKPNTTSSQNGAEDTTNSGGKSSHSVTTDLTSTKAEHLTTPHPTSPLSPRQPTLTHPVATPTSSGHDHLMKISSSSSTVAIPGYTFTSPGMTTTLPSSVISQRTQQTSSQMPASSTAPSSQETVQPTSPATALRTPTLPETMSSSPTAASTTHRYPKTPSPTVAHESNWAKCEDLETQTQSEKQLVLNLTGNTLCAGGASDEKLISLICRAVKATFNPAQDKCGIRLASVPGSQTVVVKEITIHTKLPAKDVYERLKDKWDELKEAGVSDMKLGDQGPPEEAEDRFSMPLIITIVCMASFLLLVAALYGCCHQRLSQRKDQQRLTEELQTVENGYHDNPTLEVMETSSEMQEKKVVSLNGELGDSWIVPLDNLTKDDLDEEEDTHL
Assay: kinetics of binding to PODXL on the surface of hESCs; method not stated

Kd: 40 nM
koff: 0.0029 s⁻¹
kon: 71000 M⁻¹ s⁻¹
B1: mAb 84 (antibody, V domains shown)
VH: QVQLQQSGGGLVQPGGSMKLSCVASGFTFSNYWMNWVRQSPEKGLEWVAEIRLKSNNYATHYAESVKGRFTISRDDSKSSVYLQMNNLRAEDTGIYYCTGERAWGQGTTVTVSS
VL: DIELTQSPAIMSASPGEKVTMTCSASSSVNYMYWYQQKPGSSPRLLIYDTSNLASGVPVRFSGSGSGTSYSLTISRMEAEDAATYYCQQWSSYPYTFGGGTKLEIKR

Reference: patent US20130115627A1 (AGENCY FOR SCIENCE TECHNOLOGY AND RESEARCH, published 2013)
